Laboratory results taken from patent publication EP4814012A1 (The United Bio-Technology (Hengqin) Co., Ltd., dated 2026).
Changes are numbered by the printed parent chain. Values belong to the binder of their own block, whether it stands above or below them.

Key:
human IL-4Rα on cells [1] = molecular target: T1, human IL-4Rα on cells (human, UniProt P24394 26-825); assay: cell-based or functional assay
human IL-4Rα on cells [2] = molecular target: T1, human IL-4Rα on cells; assay: cell-based or functional assay; remark: listed apart in the source
human IL-4Rα on cells [3] = molecular target: T1, human IL-4Rα on cells; assay: cell-based or functional assay; remark: listed apart in the source
human IL-4Rα on cells [4] = molecular target: T1, human IL-4Rα on cells; assay: cell-based or functional assay; remark: listed apart in the source
hIL-4Rα.ECD [5] = molecular target: T2, hIL-4Rα.ECD (human, UniProt P24394 26-232); assay: SPR (Biacore 8K), antibody captured, hIL-4Rα.ECD analyte, 25°C
T2 construct: extracellular domain; also called hIL-4Rα protein

hIL-4Rα.ECD [6] = molecular target: T2, hIL-4Rα.ECD; assay: SPR, antibody captured by anti-human Fc on CM5, hIL-4Rα.ECD analyte
hIL-4Rα.ECD [7] = molecular target: T2, hIL-4Rα.ECD; assay: SPR (Biacore 8K), method same as 1.9, hIL-4Rα.ECD analyte
human IL-4Rα on cells [8] = molecular target: T1, human IL-4Rα on cells; assay: cell-based or functional assay; remark: listed apart in the source
human IL-4Rα on cells [9] = molecular target: T1, human IL-4Rα on cells; assay: flow cytometry on CHO-K1 cells overexpressing hIL-4Rα
hTSLP [10] = molecular target: T3, hTSLP (human, UniProt Q969D9 29-159); assay: cell-based or functional assay
hTSLP [11] = molecular target: T3, hTSLP; assay: SPR (Biacore 8K), antibody captured, hTSLP analyte, 25°C
hIL-4Rα.ECD [12] = molecular target: T2, hIL-4Rα.ECD; assay: SPR (Biacore 8K), antibody captured by anti-mouse Fc, hIL-4Rα.ECD analyte, 25°C

B2: 1.34.4-z18 (antibody, human IgG4, V domains shown)
VH: QVQLVQSGAEVKKPGASVKVSCKASGYTFTTYYIYWVRQAPGQGLEWMGGSNPSTGGTLFNEKFKTRVTMTVDKSTSTAYMELSSLRSEDTAVYYCTRSGRYAPFTYWGQGTLVTVSS
VL: DIQMTQSPSSLSASVGDRVTITCKASQDVSTSVAWYQQKPGKAPKLLIYSASYRFTGVPSRFSGSGSGTDFTFTISSLQPEDFATYYCQQYSTTPFTFGQGTKLEIK
notes: Humanized with back-mutations; also called 1.34.4-z18 humanized antibody molecule
- Kd (hIL-4Rα.ECD [7]): 567 pM
- koff (hIL-4Rα.ECD [7]): 0.000137 s⁻¹
- kon (hIL-4Rα.ECD [7]): 242000 M⁻¹ s⁻¹

B3: 1.34.4 (humanized, CDR-grafted) (antibody, V domains shown)
VH: B2 VH with V72R, K74T, A79V, T97A
VL: B2 VL with F73L
- Kd (hIL-4Rα.ECD [7]): 512 pM
- koff (hIL-4Rα.ECD [7]): 0.0001 s⁻¹
- kon (hIL-4Rα.ECD [7]): 196000 M⁻¹ s⁻¹

B8: 1.34.4-Murine (antibody, V domains shown)
VH: QVQLQQPGAELVKPGASMKLSCKASGYTFTTYYIYWVKQRPGQGLEWIGGSNPSTGGTLFNEKFKTKATLTVDKYSSTAYMELSSLTFEDSAVYFCTRSGRYAPFTYWGQGTLVTVSA
VL: DIVMTQSHKVLSTSVGDRVIITCKASQDVSTSVAWYQQRPGHSPKLLIYSASYRFTGVPDRFTGSGSGTDFTFTISSVQAEDLAVYNCQQYSTTPFTFGSGTKLEIK
notes: See recheck
- IC50 (nM), Cell-based Assay Data (hIL-13), STAT6-GFP reporter gene assay (human IL-4Rα on cells [8]): 1.38 nM
- EC50 (human IL-4Rα on cells [9]): 350 pM
- Kd (hIL-4Rα.ECD [12]): 369 pM
- koff (hIL-4Rα.ECD [12]): 0.000133 s⁻¹
- kon (hIL-4Rα.ECD [12]): 361000 M⁻¹ s⁻¹

B9: 2.46.13-Murine (antibody, V domains shown)
VH: DVKLVESGGGLVKLGGSLKLSCAASGFTFSSYYMSWVRQTPEKRLELVAAINSNGGSTYSPDTVKGRFTISRDNAKNTLYLQMSSLKSEDTALYYCARRSLLGNHRDWYFDVWGAGTTVTVSS
VL: DIQMTQSPASLSASVGETVTITCRASENIYSYLAWYQQKQGKSPQLLVYNAKTLADGVPSRFSGSGSGTQFSLKINTLQPEDFGSYYCLHHYGTPLTFGAGTKLELK
notes: See recheck
- IC50 (nM), Cell-based Assay Data (hIL-13), STAT6-GFP reporter gene assay (human IL-4Rα on cells [8]): 2.23 nM
- EC50 (human IL-4Rα on cells [9]): 280 pM
- Kd (hIL-4Rα.ECD [12]): 306 pM
- koff (hIL-4Rα.ECD [12]): 0.000118 s⁻¹
- kon (hIL-4Rα.ECD [12]): 385000 M⁻¹ s⁻¹

Results, then the binder that gave them:

- IC50(pM), hIL-4 Blocking Activity by Reporter Gene Assay (human IL-4Rα on cells [1]): 16.4 pM
- IC50(pM), hIL-13 Blocking Activity, TF-1 proliferation inhibition assay (human IL-4Rα on cells [2]): 125 pM
- IC50(pM), hIL-4 inhibitory activity, reporter gene assay (HEK-293T.STAT6-GFP cells) (human IL-4Rα on cells [3]): 210 pM
- IC50 (pM), hIL-13 inhibitory activity, reporter gene assay (HEK-293T.STAT6-GFP cells) (human IL-4Rα on cells [4]): 80 pM
- Kd (hIL-4Rα.ECD [5]): 48.9 pM
- koff (hIL-4Rα.ECD [5]): 1.39e-05 s⁻¹
- kon (hIL-4Rα.ECD [5]): 285000 M⁻¹ s⁻¹
- Kd (hIL-4Rα.ECD [6]): 43.7 pM
- koff (hIL-4Rα.ECD [6]): 3.95e-05 s⁻¹
- kon (hIL-4Rα.ECD [6]): 903000 M⁻¹ s⁻¹
B1: m8 (antibody, human IgG4 S228P, kappa, V domains shown)
VH: B2 VH with F60D
VL: DIQMTQSPSSLSASVGDRVTITCKASQDVSTSVAWYQQKPGKAPKLLIYSASYRFTGVPSRFSGSGSGTDFTFTISSLQPEDFATYYCQHYSTTPFTFGQGTKLEIKR
notes: also called m8 molecule; anti-IL-4R antibody m8

- IC50(pM), hIL-4 Blocking Activity by Reporter Gene Assay (human IL-4Rα on cells [1]): 286 pM
- IC50(pM), hIL-13 Blocking Activity, TF-1 proliferation inhibition assay (human IL-4Rα on cells [2]): 66.5 pM
- Kd (hIL-4Rα.ECD [6]): 133 pM
- koff (hIL-4Rα.ECD [6]): 7.76e-05 s⁻¹
- kon (hIL-4Rα.ECD [6]): 582000 M⁻¹ s⁻¹
B4: m21 (antibody, V domains shown)
VH: B2 VH with F60E
VL: B2 VL with Q89V, Q90H
notes: captured by anti-human Fc); also called m21 molecule

- IC50(pM), hIL-4 Blocking Activity by Reporter Gene Assay (human IL-4Rα on cells [1]): 249 pM
- IC50(pM), hIL-13 Blocking Activity, TF-1 proliferation inhibition assay (human IL-4Rα on cells [2]): 58.8 pM
- Kd (hIL-4Rα.ECD [6]): 196 pM
- koff (hIL-4Rα.ECD [6]): 0.000112 s⁻¹
- kon (hIL-4Rα.ECD [6]): 568000 M⁻¹ s⁻¹
B5: m27 (antibody, V domains shown)
VH: B2 VH with F60E, P104T
VL: B2 VL with Q89V, Q90H
notes: captured by anti-human Fc); also called m27 molecule

- IC50 (nM), Cell-based Assay Data (hIL-13), STAT6-GFP reporter gene assay (human IL-4Rα on cells [8]): 0.81 nM
- IC50(pM), hIL-4 Blocking Activity by Reporter Gene Assay (human IL-4Rα on cells [1]): 201 pM
- IC50(pM), hIL-13 Blocking Activity, TF-1 proliferation inhibition assay (human IL-4Rα on cells [2]): 140 pM
- IC50 (pM), hIL-13 inhibitory activity, reporter gene assay (HEK-293T.STAT6-GFP cells) (human IL-4Rα on cells [4]): 41 pM
- EC50 (human IL-4Rα on cells [9]): 300 pM
- Kd (hIL-4Rα.ECD [5]): 61.6 pM
- koff (hIL-4Rα.ECD [5]): 5.7e-05 s⁻¹
- kon (hIL-4Rα.ECD [5]): 924000 M⁻¹ s⁻¹
- Kd (hIL-4Rα.ECD [6]): 37.9 pM
- koff (hIL-4Rα.ECD [6]): 5.4e-05 s⁻¹
- kon (hIL-4Rα.ECD [6]): 1.43e+06 M⁻¹ s⁻¹
B6: Dupilumab (antibody, V domains shown)
VH: EVQLVESGGGLEQPGGSLRLSCAGSGFTFRDYAMTWVRQAPGKGLEWVSSISGSGGNTYYADSVKGRFTISRDNSKNTLYLQMNSLRAEDTAVYYCAKDRLSITIRPRYYGLDVWGQGTTVTVSS
VL: DIVMTQSPLSLPVTPGEPASISCRSSQSLLYSIGYNYLDWYLQKSGQSPQLLIYLGSNRASGVPDRFSGSGSGTDFTLKISRVEAEDVGFYYCMQALQTPYTFGQGTKLEIKR

- IC50 (pM), hIL-13 inhibitory activity, reporter gene assay (HEK-293T.STAT6-GFP cells) (human IL-4Rα on cells [4]): 133 pM
- IC50 (nM), hTSLP inhibitory activity, reporter gene assay (HEK-293T-hTSLPR-IL7Ra-STAT5-Luciferase cells) (hTSLP [10]): 0.3 nM
- Kd (hTSLP [11]): 18.8 pM
- koff (hTSLP [11]): 5.88e-05 s⁻¹
- kon (hTSLP [11]): 3.14e+06 M⁻¹ s⁻¹
- Kd (hIL-4Rα.ECD [5]): 59.8 pM
- koff (hIL-4Rα.ECD [5]): 4.35e-05 s⁻¹
- kon (hIL-4Rα.ECD [5]): 727000 M⁻¹ s⁻¹
B7: MMT (bispecific antibody, human IgG4 S228P, kappa)
heavy: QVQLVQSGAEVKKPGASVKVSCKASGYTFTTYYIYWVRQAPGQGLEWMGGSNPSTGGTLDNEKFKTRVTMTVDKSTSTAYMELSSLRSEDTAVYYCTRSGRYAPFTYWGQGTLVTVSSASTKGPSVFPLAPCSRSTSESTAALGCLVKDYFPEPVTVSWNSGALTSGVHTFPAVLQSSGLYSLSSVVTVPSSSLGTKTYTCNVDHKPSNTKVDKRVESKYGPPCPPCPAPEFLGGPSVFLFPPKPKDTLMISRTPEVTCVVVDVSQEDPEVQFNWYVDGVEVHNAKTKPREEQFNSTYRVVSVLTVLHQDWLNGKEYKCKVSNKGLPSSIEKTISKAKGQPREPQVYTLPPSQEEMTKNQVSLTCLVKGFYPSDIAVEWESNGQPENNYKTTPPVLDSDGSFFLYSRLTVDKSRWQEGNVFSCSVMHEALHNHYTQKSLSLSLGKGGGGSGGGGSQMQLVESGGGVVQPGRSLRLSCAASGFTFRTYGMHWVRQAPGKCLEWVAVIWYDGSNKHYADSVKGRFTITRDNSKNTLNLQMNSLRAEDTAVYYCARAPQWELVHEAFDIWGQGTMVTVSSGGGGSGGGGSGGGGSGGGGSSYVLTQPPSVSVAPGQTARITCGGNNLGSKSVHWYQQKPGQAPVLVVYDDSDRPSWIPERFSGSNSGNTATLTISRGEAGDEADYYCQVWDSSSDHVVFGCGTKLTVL
light: DIQMTQSPSSLSASVGDRVTITCKASQDVSTSVAWYQQKPGKAPKLLIYSASYRFTGVPSRFSGSGSGTDFTFTISSLQPEDFATYYCQHYSTTPFTFGQGTKLEIKRTVAAPSVFIFPPSDEQLKSGTASVVCLLNNFYPREAKVQWKVDNALQSGNSQESVTEQDSKDSTYSLSSTLTLSKADYEKHKVYACEVTHQGLSSPVTKSFNRGEC
notes: the junction should be checked against them; also called MMT bispecific antibody; MMT molecule

- IC50(pM), hIL-4 inhibitory activity, reporter gene assay (HEK-293T.STAT6-GFP cells) (human IL-4Rα on cells [3]): 170 pM
- IC50 (pM), hIL-13 inhibitory activity, reporter gene assay (HEK-293T.STAT6-GFP cells) (human IL-4Rα on cells [4]): 66.5 pM
- IC50 (nM), hTSLP inhibitory activity, reporter gene assay (HEK-293T-hTSLPR-IL7Ra-STAT5-Luciferase cells) (hTSLP [10]): 0.14 nM
- Kd (hTSLP [11]): 2.96 pM
- koff (hTSLP [11]): 3.5e-05 s⁻¹
- kon (hTSLP [11]): 1.18e+07 M⁻¹ s⁻¹
- Kd (hIL-4Rα.ECD [5]): 65.9 pM
- koff (hIL-4Rα.ECD [5]): 3.48e-05 s⁻¹
- kon (hIL-4Rα.ECD [5]): 528000 M⁻¹ s⁻¹
B10: MTM (bispecific antibody, human IgG2, lambda)
heavy: QMQLVESGGGVVQPGRSLRLSCAASGFTFRTYGMHWVRQAPGKGLEWVAVIWYDGSNKHYADSVKGRFTITRDNSKNTLNLQMNSLRAEDTAVYYCARAPQWELVHEAFDIWGQGTMVTVSSASTKGPSVFPLAPCSRSTSESTAALGCLVKDYFPEPVTVSWNSGALTSGVHTFPAVLQSSGLYSLSSVVTVPSSNFGTQTYTCNVDHKPSNTKVDKTVERKCCVECPPCPAPPVAGPSVFLFPPKPKDTLMISRTPEVTCVVVDVSHEDPEVQFNWYVDGVEVHNAKTKPREEQFNSTFRVVSVLTVVHQDWLNGKEYKCKVSNKGLPAPIEKTISKTKGQPREPQVYTLPPSREEMTKNQVSLTCLVKGFYPSDIAVEWESNGQPENNYKTTPPMLDSDGSFFLYSKLTVDKSRWQQGNVFSCSVMHEALHNHYTQKSLSLSPGKGGGGSGGGGSQVQLVQSGAEVKKPGASVKVSCKASGYTFTTYYIYWVRQAPGQCLEWMGGSNPSTGGTLDNEKFKTRVTMTVDKSTSTAYMELSSLRSEDTAVYYCTRSGRYAPFTYWGCGTLVTVSSGGGGSGGGGSGGGGSGGGGSDIQMTQSPSSLSASVGDRVTITCKASQDVSTSVAWYQQKPGKAPKLLIYSASYRFTGVPSRFSGSGSGTDFTFTISSLQPEDFATYYCQHYSTTPFTFGCGTKLEIK
light: SYVLTQPPSVSVAPGQTARITCGGNNLGSKSVHWYQQKPGQAPVLVVYDDSDRPSWIPERFSGSNSGNTATLTISRGEAGDEADYYCQVWDSSSDHVVFGGGTKLTVLGQPKAAPSVTLFPPSSEELQANKATLVCLISDFYPGAVTVAWKADSSPVKAGVETTTPSKQSNNKYAASSYLSLTPEQWKSHRSYSCQVTHEGSTVEKTVAPTECS
notes: the junction should be checked against them; also called MTM bispecific antibody; MTM molecule
